In the supplement of paper PMC12042874:
± gives the uncertainty stated by the source.

Assay: amyloid nucleation score (Sup35N fusion, yeast selection) (log enrichment); library NNK3; higher = more nucleation; inactive = no reads after selection
How it was run: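 After 24 hours of induction with 100 μM copper sulfate, psi-negative yeast expressing peptides of 20 random codons fused to Sup35N were grown for 7 days at 30°C on medium lacking adenine and uracil. Input and output plasmid inserts were sequenced with Illumina, and sequences with under 100 input reads were discarded. Scores for nucleation are the DiMSum log enrichment of output over input reads, centred on the mode score of non-aggregating sequences.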

Row | Substance | amyloid nucleation score
1 | VQLLDRNEIFGVWGSIELLQ | inactive
2 | LCVSCIDSFLGEMVFGLEVI | inactive
3 | RTAMVVDSYAKSFMSQASVL | inactive
4 | TWRKGVSVLVLSGFVVTNQR | inactive
5 | FIIVPKWSCFLVSSMKFRVV | inactive
6 | VQYNHLRVVSHDVNENGEPR | inactive
7 | LFKDSIVLIGILYCMFNLHD | inactive
8 | RSMYR | inactive
9 | FDRSSGKRMVL | 0.466 ± 0.21
10 | LFMKRLFLSWFSMVVICGAP | 0.362 ± 0.71
11 | CHPLGRCALWWCFVPHGRFA | inactive
12 | CMAMSFPWWWYTGIITYSL | inactive
13 | FLQAAYSGSRVAKCVSESSK | inactive
14 | LMYVS | inactive
15 | LWSYITK | inactive
16 | PWDWWVDSACWRRRPVDDPR | inactive
17 | CYLVGLCLLFGVQVSGLPYR | 0.798 ± 0.26
18 | MEWFFVSYPLITGWMGS | inactive
19 | ASVRTYVDTNHYNLAEILRL | inactive
20 | IWFKWNRCNVRGMTWTDFYA | 1.17 ± 0.082
21 | LTSLSKSFCNNVHAYSDFLH | inactive
22 | WNTGETISRRLVVYNFIEMN | 2.22 ± 0.056
23 | CSVGSFFRFDIIYWKYAGSL | -0.2 ± 0.36

Row | Substance | amyloid nucleation score
24 | FKPWLYFGRPMAQLRDDCQV | inactive
25 | PRDGVFLVKGDRPC | inactive
26 | GGDTPDDRVSNHCLYRHHHV | inactive
27 | CHLPQRP | 0.989 ± 0.2
28 | RTLCRLWTLCCRCRSYALFR | inactive
29 | LQEGSN | inactive
30 | KERVNRSLTYTVFSS | inactive
31 | AGVNLRTIRVMYRLPIISYL | inactive
32 | CAFPVDGRGTIVVFRHVLEG | inactive
33 | GPPLNYEVT | inactive
34 | LIWFGGGPSRWSM | -0.117 ± 1.1
35 | SNVGSDDTFLVLLHSHSRSG | 0.72 ± 0.49
36 | SVFQWHPFIESKGNLLSTVK | inactive
37 | ACSRKISSIVATSRLVSTSG | inactive
38 | FAFSNLTKPVFKI | inactive
39 | NLRWV | 0.478 ± 0.25
40 | CFDCTVF | inactive
41 | CWPESISVVYLQYCAGSMSL | inactive
42 | PQDKRASACRVWAPNKNGRG | inactive
43 | MLLCDKFVVCTCIGVQVYSY | 2.19 ± 0.087
44 | SVVRVCSSCIVDYRMCESK | 0.927 ± 0.14
45 | RFGALVTLVFVCYHWNRPTA | 0.753 ± 0.16
46 | RHRLAHMRNKWRGQVHCPKG | inactive

Row | Substance | amyloid nucleation score
47 | ALSHKVAVYVYC | inactive
48 | NEVETESCIELTFPMQYWQV | 2.24 ± 0.093
49 | SKSQSSHHDSYSLWTM | inactive
50 | DNCEDEDKNRRNVRLYRGWV | inactive
51 | SIRLIIKELDGNDTCIGVSG | inactive
52 | VSYTYAGYSIRYIVFSS | inactive
53 | TNRPMNGSYNNMWSRINLMV | inactive
54 | KLTVMVMQLASLRLAK | -0.158 ± 0.35
55 | YYWLLIGLLFRVLLMLVQGK | inactive
56 | LACRFILNAEVEICLAWKLG | inactive
57 | VIKSIWQSYGRKRSYLDMSI | inactive
58 | LLVTQGVYS | 1.17 ± 0.12
59 | CCLEILGTLFN | inactive
60 | MFNILADKGSRARSERASL | inactive
61 | TSLEN | inactive
62 | TKTHCFLLLSGVCVGRVLGW | inactive
63 | HGFSMTFRLLTFFHGKNYCM | inactive
64 | GGHENKKRYSSRTIGMCVHE | inactive
65 | WYSRTDCNKTAENSCSTKFI | 0.611 ± 0.17
66 | LAGRHVVMWLQLMAHDIENM | inactive
67 | TLVGYLIARLFWR | inactive
68 | TGYLAMWLY | inactive
69 | YVIGDVIIFPSSFMINCLYC | 2.4 ± 0.081

Row | Substance | amyloid nucleation score
70 | FSCSNSLTMVFVEDFNHATY | inactive
71 | TDHNDLMKLFATRCSPNPCL | inactive
72 | NDLSGKTCNGRRVEDRAPMA | -0.114 ± 0.44
73 | TGILRNFSCFSFWFWVIRIT | 1.46 ± 0.097
74 | LEYAYSELNSSVSTLSSFE | inactive
75 | GCFLNNMLIGF | inactive
76 | GIFCYQWWRTNPNESLAR | inactive
77 | IPFNPALLVPRGFGSFIIPA | inactive
78 | QNCFHVY | inactive
79 | IYTCSTRSSSFYRRMIRSFL | inactive
80 | SDRLS | inactive
81 | PGVTSMSLSYPGFWVSPS | inactive
82 | FRNRGLNSNMNYSSFNVQSM | -0.124 ± 0.52
83 | WFASNPIMLPSFYLIPWKRT | inactive
84 | VNWRVRWIYSILGKS | inactive
85 | NGWLVMLYIKLTGFFP | inactive
86 | LYIGQGSMIFFYSVVGFSAC | 2.36 ± 0.087
87 | SLAVGLLNCLL | 2.17 ± 0.075
88 | GRFRLMNLFQTDSRINLWVR | inactive
89 | QYWNFFRFVRGDD | 0.601 ± 0.14
90 | SNKSHVCYFSIEFVLISGLS | inactive
91 | FCTPI | inactive
92 | VLFSGFFYLSDNYKLMGFVH | inactive

Row | Substance | amyloid nucleation score
93 | RYYIMILLS | inactive
94 | LSWRTPISAMFDSWACGGGR | inactive
95 | LAMSYYLYPGSCDLKRS | inactive
96 | SVNKAWHSRLIVVLYNRLTG | 0.082 ± 0.18
97 | SCLMLSIYSSQTWKSLCGLK | 0.95 ± 0.12
98 | TLLIRCYPYIMLYRFAASTD | inactive
99 | DGDIVDSG | -0.616 ± 0.8
100 | NYVGSSPGVGSRYTCLKSNV | inactive
101 | LTDRDDDSTHVRSPYSRLLW | inactive
102 | KSFQGSITILVFSWLINNPR | inactive
103 | VCKVTFMCAFRHDYSKRYYG | 0.35 ± 0.48
104 | FSASSISDKIFSMEYCTTWV | inactive
105 | ACKLIEFSSQQVFVGFGVHA | inactive
106 | LCGLSDSYCRA | inactive
107 | IAIKNSSRRYMNYERLFTKL | inactive
108 | QTEFSIGPYIPTEATSRTCS | -0.451 ± 1
109 | NCSGQTGFGPVMSYWTIDVR | -0.022 ± 0.59
110 | FKRCSSIVRGWSS | inactive
111 | ESCWHLAEVRVIYGHRSMRP | 0.854 ± 0.2
112 | FRSGSIDCSKLWILFY | inactive
113 | RLFFGYCRMDVIFAPYISCV | inactive
114 | MSYVSFKFVERSMGNNSGGI | -0.137 ± 0.64
115 | VSELPSACDNYIYCCNG | 0.326 ± 0.2

Row | Substance | amyloid nucleation score
116 | MSSFTAYLLNLR | inactive
117 | SYYMTKLVFLCPLW | inactive
118 | FTLFIQVV | inactive
119 | ELLHKAF | inactive
120 | GGSFREVVNRRTRVGEDP | inactive
121 | WKFWVAC | inactive
122 | DPTVVGWEYMVSRFCLSRFT | inactive
123 | DSYYFPRQGWMY | inactive
124 | ESYRTKFIVFGWGL | 0.835 ± 0.12
125 | PSSFKMY | inactive
126 | MKCCFSTLIPAKYNLDTLIL | inactive
127 | DARVVGVLDVRDLAKYFWMA | inactive
128 | FKLHIWSS | inactive
129 | NKRGNCVEKDDCFVMYEWNM | inactive
130 | VRGIAIACWSQFCNWRICCR | -0.231 ± 0.82
131 | SVIVTYVWVTAVVQGEYSTK | -0.095 ± 0.55
132 | VSPRRGHNVYLIVAARWCVA | inactive
133 | LNKLEVNDVSIGYVNCTLFK | inactive
134 | FLRLHLFHSWTISLSSYRSV | inactive
135 | APWVMLVVSFPRKESRSFGM | inactive
136 | WEELDYNSDPLLAGSVTDYM | inactive
137 | IPALIVISQYRGANRFDCAF | inactive
138 | DFDAFRFIHVVSWFGFTIYP | inactive

Row | Substance | amyloid nucleation score
139 | WANNSCAIRGNNSPMGGSVA | inactive
140 | NVGITMGCNRTPCLSTWFAV | inactive
141 | KLNSGEVFWQDTL | inactive
142 | VQLPVIVSAPPI | -0.421 ± 1.1
143 | CSSRMVFLRHLAGFLWGRPP | 0.038 ± 0.85
144 | QDLTLLCVSIWWKLGWSESR | inactive
145 | ALHWKGLQT | inactive
146 | NDFLCI | inactive
147 | YRTIVVLSNFFNILSFSKNQ | 0.718 ± 0.15
148 | VNEIRDILLVSYSKFRAWGQ | 1.2 ± 0.13
149 | LICIQCWFYDSYHTQQLWGL | 2.16 ± 0.056
150 | CCWYPYEYIINYASVTSQFP | 1.56 ± 0.066
151 | KNREVANYNDMYSDPILG | inactive
152 | WVVRKVHSLSHCLGCHPESW | 0.231 ± 0.57
153 | KPKELSAHLNATM | inactive
154 | MWLPPAVQVLLILKAVIVKL | inactive
155 | LEMTSCTNLLHKRELVSWHR | inactive
156 | ESNVVPLNSHR | inactive
157 | AKPIRSSGMFVCTAVYEYVF | inactive
158 | NFYRCGVWHLNWYEYDVLRL | inactive
159 | KGYCFAYRQNSVELIP | inactive
